Measurements as given in the domain aggregation screens of Martell et al. (2025).

test: soluble fraction after stress (log2 fold change); higher = more stays soluble; pooled small domains, quantitative proteomics; conditions: stress: 75 degC
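Note: 20 min heating vs room temperature control held 20 min.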

Q: With “HMQQFGANVRLIRKARQMSIKQLSELSGVSQTMISEVERGLKIPTIDVAGKIAAALGIDLTNLMG” as the sequence, how does the “soluble fraction (log2)” value read?
A: -2.16

Q: Which “soluble fraction (log2)” value does the source give for “HMQQIQILPDGKIKLPDLSGTNMREAIEILHKGGLRMKPYGSGNAYQQKPAAGETVASGTTVEVLSL” here?
A: 0.151

Q: Which “soluble fraction (log2)” value does the source give for “HMQQLAEQIPTDRPYISIAEAVVLFGISRDTIYRQIRKGNIPAVNLGERLTRISRIHIEAMFPKV” here?
A: -0.305

Q: Which “soluble fraction (log2)” value does the source give for “HMQQNYREMHKVKKGETLFGIARRYEITVDQLIKANPDMNAVGYELKKGDYIFIPYPDGQKP” here?
A: -0.427

Q: Which “soluble fraction (log2)” value does the source give for “HMQRAEQLPAELAAVFRAETEAWGFFERQPPGYQRVAIHWVASAKQEATRLRRLAKLIEESAAGRR” here?
A: -1.61

Q: For “HMQRDTIAISAIPTAIKTYLSSTYPTDTLVHAFVNKDQSIVVISKNIDFYATSFSTANAFIKRIQLPA”, which “soluble fraction (log2)” value is on record?
A: -1.41

Q: Which “soluble fraction (log2)” value does the source give for “HMQRFIHITVSDVHQATRLLEEEMQLTNYSVAENNAIKIFEFTYEPQEINHLFGKNGIEVSSLFIGS” here?
A: -0.0559

Q: Which “soluble fraction (log2)” value does the source give for “HMQRNLILKLDTDQPEIYKKLESIFVEINGLLVPFFIEKIIWSKQDSLNILFKNSSEALVEQLIGKNVFLP” here?
A: 0.2

Q: With “HMQRSVNYSELHEIKERVFDALYSSPMSMPDLLAWLKGDEEHTISVIRLMQDNGDIEMGEDGRLAVV” as the sequence, how does the “soluble fraction (log2)” value read?
A: -0.383

Q: With “HMQSISLEEAKSAALDDAQLGIDEVEFLKTERNTDGDTSYYDIQFLVNGTIYKYQINTETGAILHVDYEA” as the sequence, how does the “soluble fraction (log2)” value read?
A: 0.0632

Q: For “HMQSITAGDKVRVKNYTVSGGKKRGKVYGGAGTFVVYYEKYDVISVTGDRVVIGIGKAVTAAVHIDDLEK”, which “soluble fraction (log2)” value is on record?
A: -2.07

Q: With “HMQSKSEINELPKSIHMAFSPKNFELFIDNLKINEIDFSNWKGELNTIQERVDGQRQIWIQDPQGYWIEIN” as the sequence, how does the “soluble fraction (log2)” value read?
A: -0.0964

Q: Which “soluble fraction (log2)” value does the source give for “HMQSLIVPVPKPEDDPVYKDGIKQDPVEVVSIWLGRDYLNMILNLKVSTGKGHTFGIVEDVS” here?
A: -0.157

Q: For “HMQSNDTAEIEAVVKEIMAANERVVNDYRSGNTKVVSFFVGQVMKATKGKANPKVVNEVLAKLLK”, which “soluble fraction (log2)” value is on record?
A: -0.823

Q: For “HMQSVPELDQQFKIAIENNDFIKLAQLKEQGYHPSKEVMQSLSNTTPNNTIIAVQKIFGLKA”, which “soluble fraction (log2)” value is on record?
A: 0.546

Q: Which “soluble fraction (log2)” value does the source give for “HMQSVSANSVQKQLADIIDGEDKTHPLSDRELTEKLVAQGVQISRRTVAKYREAMGIPGASGRKQ” here?
A: -0.0543

Q: Which “soluble fraction (log2)” value does the source give for “HMQTAAANPSPESILQAREAAGLSQSEAGALIYSGLRSWQHWEWGTRRMHPGLFELFLKKTGQI” here?
A: -1.83

Q: With “HMQTKMVYSDLVNSIKSEQVSSMLVSGNTVTVTLTNGDKAKVKIPSLDTLQADVGKEMNDQMDKGTLKQE” as the sequence, how does the “soluble fraction (log2)” value read?
A: 0.18

Q: For “HMQTKNYVYFNNTENWSTVNVYVWSSKDSTYMSWPGKAMESIGNNTYRFELPNGAEYAIFNNGSAQTVD”, which “soluble fraction (log2)” value is on record?
A: -0.335

Q: For “HMQTKSDMVYHRVREDIVNGVFAPGERLLISAVAKQYGVSEIPVREAFRVLSQEGFLKTRPNSGFVVS”, which “soluble fraction (log2)” value is on record?
A: -0.44

Q: For “HMQTMTAGERREAILRELEQAQGPVSASALAKRFHVSRQAVVGDVAMLRALNSPIAATPRGYVLTR”, which “soluble fraction (log2)” value is on record?
A: -0.322

Q: With “HMQTMTDDQVMQYVISQQEKGATQQDIVSKLLQKGVTVDQMRRIRKKYEAQQSQPGALDLTGSS” as the sequence, how does the “soluble fraction (log2)” value read?
A: 0.654

Q: For “HMQTNEAIINQAVQAAEAQNITTRSQAVDALKANGMTEAQARQLAVQRGISYDQLINELFPME”, which “soluble fraction (log2)” value is on record?
A: 0.0149

Q: Which “soluble fraction (log2)” value does the source give for “HMQTPVTVGDTMPNLIGTPKRLLLELLNRTDITVKLTGDGYVTAQSPAAGTPIAKGMIIELSL” here?
A: -2.17

Q: With “HMQTQVEVLVKYVLEDGTVYKEDKVSADIGAILDSGDLPMLSNDMKFIDDFLFYEVKESDNVIERKVAKLV” as the sequence, how does the “soluble fraction (log2)” value read?
A: -0.782

Q: With “HMQTQYIVDTKTTLLVRTGPGKSNSQFGRLKNGETINVYAIKNGWAEISYNGKTGYVSEQYIKLA” as the sequence, how does the “soluble fraction (log2)” value read?
A: -3.59

Q: With “HMQTTDTGAIETIVDELMAANPDKVEAYRGGKTGLQGFFMGQVMKQLGGQGNPKVISAIVTEKLE” as the sequence, how does the “soluble fraction (log2)” value read?
A: 0.603

Q: With “HMQTTPAGHELLIRYFANGNIRERGMMKDGKRNGIWIFYDESGMEIRKTKYKMGKIISDYDLN” as the sequence, how does the “soluble fraction (log2)” value read?
A: -2.6

Q: For “HMQTTQQLIRNLRLKQAATLLADKRHSITEVATLTGFTHPTYFATAFREMFGVSPSEYMEQHI”, which “soluble fraction (log2)” value is on record?
A: -1.49

Q: For “HMQTYNQLKRGMTEWIQAGQKQKAYELFAGVAGQLSLSSAAGKKQYNELVTILNRAGFGIPLE”, which “soluble fraction (log2)” value is on record?
A: -1.12

Q: With “HMQVEMVLSQEAHEWLLQRGFIPEYGAREMDRVIAAHLKPLLMREILFGTLKAGGKVRVQVENGALKLQP” as the sequence, how does the “soluble fraction (log2)” value read?
A: -3.08

Q: For “HMQVLSESDVEDIKAISGGDKAYDNLMEWAGSKLSKQDAKDYDDVLATGNKTAITFAVKALMAQYENAN”, which “soluble fraction (log2)” value is on record?
A: -0.198

Q: For “HMQVPFGFQRNPSTGTLEEKAEEQLIINQVLSLKNSGIGVSEISKRLGELSVSRIYRIINTAKKNAS”, which “soluble fraction (log2)” value is on record?
A: -0.812

Q: With “HMQVSDANQLTDVVKSIIKQYPVEVEKYKSGKKALFGFFMGKVMENLKGKSNPKILKNVLTEILD” as the sequence, how does the “soluble fraction (log2)” value read?
A: 0.22

Q: For “HMQVSDTNTLEQFAKEVIEANPKAVEDYHQNPLAIGFLVGQLMKVSKGSANPQTGKEILEKLL”, which “soluble fraction (log2)” value is on record?
A: -0.112

Q: With “HMQVSDVTTIRALVEEVLSSSPQQLAQYRAGKLSLKGYFVGQVMKKGKGQLNAAAVNNLLDEIL” as the sequence, how does the “soluble fraction (log2)” value read?
A: -2.41

Q: With “HMQVSEQVQRLLDALENDTLTTKELMDRLGLKHRPTFRKNYLLPSMKLGLVEMTIPDKPNSSRQKYRRRQ” as the sequence, how does the “soluble fraction (log2)” value read?
A: -0.566

Q: For “HMQVTEVDYGTFMKMVEEKNVGEVEVGNSMIVFTDKDGKAIYKTGAMNDPNLTERLYNAGASFTKE”, which “soluble fraction (log2)” value is on record?
A: 0.144

Q: With “HMQVTGLTAENAHRVTMIREKGTDHPPVPFHFRKEHHGTGNYVHLYGNPEDRNELHSRDFKDWEAVAFK” as the sequence, how does the “soluble fraction (log2)” value read?
A: 0.211

Q: With “HMQVVDWSQVDKEDYLLATKRRAVSTGELKFLLLNNLTYDLTQTRFFKGMDASYYYEGYNLYQTGE” as the sequence, how does the “soluble fraction (log2)” value read?
A: 0.0696

Q: Which “soluble fraction (log2)” value does the source give for “HMQWGKVRRLPSGRYQASYVHKGTRYTAPETYTVQGRAHGWIESERRLIVTDTWTPPDTRPS” here?
A: -1.24

Q: Which “soluble fraction (log2)” value does the source give for “HMQWLDSIRSRLRVGQTISYFEPRENASSSGLIIELRRKRVLVLEIATQKRWLIEYAAINVDG” here?
A: -0.279

Q: Which “soluble fraction (log2)” value does the source give for “HMQWQPSEEAMQRLEQHGIPRAFSFSQLDAFVLQGQEQGSNRNDWNTRFFRFIKNQWVYAQN” here?
A: -2.59

Q: For “HMQYDSYTVEEPAKLLDWLLAHLRQSRTKIKATLQGHGIKVNGKTVTQFDYPLEPGMKIRVSLTK”, which “soluble fraction (log2)” value is on record?
A: -1.24

Q: For “HMQYKTRVINLSILEVGMVLGRDLINKDGKIIVKKDVAISDFLKDHLIGLSKIKEIEPQIYIKV”, which “soluble fraction (log2)” value is on record?
A: -1.15

Q: For “HMQYSIQVNKLLKAMREDVWYTANEILDLLKLKSKETLRKNYLDPAINNKLIILELPDKPTSRNQRYKI”, which “soluble fraction (log2)” value is on record?
A: -2.03

Q: With “HMQYTQKTMYINDSYVNLRKSASTSSDIIMVVELNTKLTVIGEDGDWYKVKTSSGNAYVLKTLLSNEKKET” as the sequence, how does the “soluble fraction (log2)” value read?
A: -3.22

Q: For “HMQYTTDEVRERVLSVLNQLLLRWIVREGKDMFNIQANAVEISEGIKGELNTELEKIGLAATGFQIDSV”, which “soluble fraction (log2)” value is on record?
A: -0.393

Q: Which “soluble fraction (log2)” value does the source give for “HMRADRLISMLMLLQARGKITAEELAVELGVSQRTIYRDIEALSFAGVPVYAERGPGGGIGLLEPY” here?
A: -1.73

Q: Which “soluble fraction (log2)” value does the source give for “HMRAEPNSNYSLAIIYKNRYDIAVKKKDAVKEVEYGKMVYEYLNKYVVLSGNKSAKYKKILNYFSSY” here?
A: -3.02

Q: Which “soluble fraction (log2)” value does the source give for “HMRAFTPSEAQVAHARRVMEAFWQHQREGHGAFALDGKMVDAPIVKAAARVLARAGLQDPNHPIHLA” here?
A: -0.332

Q: For “HMRALPFSFANRHGVLIREISDGVAHAVYRIGSSPLGLAEARRFVGMPLMLTPVAREAFDSLLQQTYEQG”, which “soluble fraction (log2)” value is on record?
A: -2.39

Q: Which “soluble fraction (log2)” value does the source give for “HMRAPEIEAARSDLDVGQTVQIVRHLHGNQYEVFYRGAQWQAEAVGSSGANDAQTAVITGKNGNILLIQI” here?
A: 0.0986

Q: With “HMRAVPTKLAPFVEVLKAMLEADGHRPKAQRRTAKALHLELISRGYAGGYTRLTDYIRDWRQQQG” as the sequence, how does the “soluble fraction (log2)” value read?
A: -2.36

Q: For “HMRDANYFINPIHEWQKRYEALRASFVDRLPAQAVAQRFGYTITYIHLLRHQFKSGKIDFSEPVPEG”, which “soluble fraction (log2)” value is on record?
A: -4.19

Q: For “HMRDFTQPQTASIGPRMREALARGTMTVEELREQFRTQEFPHESVRTAFLEELERVAAELGLA”, which “soluble fraction (log2)” value is on record?
A: 0.349
